B1: S115N01 G2: UDP-glycosyltransferase, Avena strigosa, SEQ ID NO: 4 (protein, listed as Avena strigosa)
chain: MAVKDEQQSPLHILLFPFLAPGHLIPIADMAALFASRGVRCTILTTPVNAAIIRSAVDRANDAFRGSDCPAIDISVVPFPDVGLPPGVENGNALTSPADRLKFFQAVAELREPFDRFLADNHPDAVVSDSFFHWSTDAAAEHGVPRLGFLGSSMFAGSCNESTLHNNPLETAADDPDALVSLPGLPHRVELRRSQMMDPKKRPDHWALLESVNAADQKSFGEVFNSFHELEPDYVEHYQTTLGRRTWLVGPVALASKDMAGRGSTSARSPDADSCLRWLDTKQPGSVVYVSFGTLIRFSPAELHELARGLDLSGKNFVWVLGRAGPDSSEWMPQGFADLITPRGDRGFIIRGWAPQMLILNHRALGGFVTHCGWNSTLESVSAGVPMVTWPRFADQFQNEKLIVEVLKVGVSIGAKDYGSGIENHDVIRGEVIAESIGKLMGSSEESDAIQRKAKDLGAEARSAVENGGSSYNDVGRLMDELMARRSSVKVGEDIIPTNDGL
B2: UGTSL2: UGTSL2, GI_460410132, Solanum lycopersicum UDP-glucosyltransferase, SEQ ID NO: 9 (protein, listed as Solanum lycopersicum)
chain: MATNLRVLMFPWLAYGHISPFLNIAKQLADRGFLIYLCSTRINLESIIKKIPEKYADSIHLIELQLPELPELPPHYHTTNGLPPHLNPTLHKALKMSKPNFSRILQNLKPDLLIYDVLQPWAEHVANEQNIPAGKLLTSCAAVFSYFFSFRKNPGVEFPFPAIHLPEVEKVKIREILAKEPEEGGRLDEGNKQMMLMCTSRTIEAKYIDYCTELCNWKVVPVGPPFQDLITNDADNKELIDWLGTKHENSTVFVSFGSEYFLSKEDMEEVAFALELSNVNFIWVARFPKGEERNLEDALPKGFLERIGERGRVLDKFAPQPRILNHPSTGGFISHCGWNSAMESIDFGVPIIAMPIHNDQPINAKLMVELGVAVEIVRDDDGKIHRGEIAETLKSVVTGETGEILRAKVREISKNLKSIRDEEMDAVAEELIQLCRNSNKSK
B3: S115N06 E1: hypothetical protein OsJ_04191, Oryza sativa Japonica Group, SEQ ID NO: 6 (protein, listed as Oryza sativa)
chain: MHVVMLPWLAFGHILPFAEFAKRVARQGHRVTLFSTPRNTRRLIDVPPSLAGRIRVVDIPLPRVEHLPEHAEATIDLPSNDLRPYLRRAYDEAFSRELSRLLQETGPSRPDWVLADYAAYWAPAAASRHGVPCAFLSLFGAAALCFFGPAETLQGRGPYAKTEPAHLTAVPEYVPFPTTVAFRGNEARELFKPSLIPDESGVSESYRFSQSIEGCQLVAVRSNQEFEPEWLELLGELYQKPVIPIGMFPPPPPQDVAGHEETLRWLDRQEPNSVVYAAFGSEVKLTAEQLQRIALGLEASELPFIWAFRAPPDAGDGDGLPGGFKERVNGRGVVCRGWVPQVKFLAHASVGGFLTHAGWNSIAEGLANGVRLVLLPLMFEQGLNARQLAEKKVAVEVARDEDDGSFAANDIVDALRRVMVGEEGDEFGVKVKELAKVFGDDEVNDRYVRDFLKCLSEYKMQRQG
B4: S115N05 A7: UGTSL, Solanum lycopersicum cyanidin-3-O-glucoside 2-O-glucuronosyltransferase-like, SEQ ID NO: 5 (protein, listed as Solanum lycopersicum)
chain: MSPKLHKELFFHSLYKKTRSNHTMATLKVLMFPFLAYGHISPYLNVAKKLADRGFLIYFCSTPINLKSTIEKIPEKYADSIHLIELHLPELPQLPPHYHTTNGLPPNLNQVLQKALKMSKPNFSKILQNLKPDLVIYDILQRWAKHVANEQNIPAVKLLTSGAAVFSYFFNVLKKPGVEFPFPGIYLRKIEQVRLSEMMSKSDKEKELEDDDDDDDLLVDGNMQIMLMSTSRTIEAKYIDFCTALTNWKVVPVGPPVQDLITNDVDDMELIDWLGTKDENSTVFVSFGSEYFLSKEDMEEVAFALELSNVNFIWVARFPKGEERNLEDALPKGFLERIGERGRVLDKFAPQPRILNHPSTGGFISHCGWNSAMESIDFGVPIIAMPMHLDQPMNARLIVELGVAVEIVRDDDGKIHRGEIAETLKGVITGKTGEKLRAKVRDISKNLKTIRDEEMDAAAEELIQLCRNGN
B5: S115N06 C2: UDP-glucoronosyl/UDP-glucosyl transferase family protein, Arabidopsis lyrata subsp. lyrata, SEQ ID NO: 7 (protein, listed as Arabidopsis lyrata)
chain: MDDKKEEVMHIAMFPWLAMGHLLPFLRLSKLLAQKGHKISFISTPRNILRLPKLPSNLSSSITFVSFPLPSISGLPPSSESSMDVPYNKQQSLKAAFDLLQPPLTEFLRLSSPDWIIYDYASHWLPSIAKELGISKAFFSLFNAATLCFMGPSSSLIEESRSTPEDFTVVPPWVPFKSTIVFRYHEVSRYVEKTDEDVTGVSDSVRFGYTIDGSDAVFVRSCPEFEPEWFSLLQDLYRKPVFPIGFLPPVIEDDDDDTTWVRIKEWLDKQRVNSVVYVSLGTEASLRREELTELALGLEKSETPFFWVLRNEPQIPDGFEERVKGRGMVHVGWVPQVKILSHESVGGFLTHCGWNSVVEGIGFGKVPIFLPVLNEQGLNTRLLQGKGLGVEVLRDERDGSFGSDSVADSVRLVMIDDAGEEIREKVKLMKGLFGNMDENIRYVDELVGFMRNDESSQLKEEEEEDDCSDDQSSEVSSETDEKELNLDLKEEKRRISVYKSLSSEFDDYVANEKMG
B6: S115N01 A1: UDP-glucosyltransferase Os03g0702500, Oryza sativa Japonica Group, SEQ ID NO: 3 (protein, listed as Oryza sativa)
chain: MDDAHSSQSPLHVVIFPWLAFGHLLPCLDLAERLAARGHRVSFVSTPRNLARLPPVRPELAELVDLVALPLPRVDGLPDGAEATSDVPFDKFELHRKAFDGLAAPFSAFLDTACAGGKRPDWVLADLMHHWVALASQERGVPCAMILPCSAAVVASSAPPTESSADQREAIVRSMGTAAPSFEAKRATEEFATEGASGVSIMTRYSLTLQRSKLVAMRSCPELEPGAFTILTRFYGKPVVPFGLLPPRPDGARGVSKNGKHDAIMQWLDAQPAKSVVYVALGSEAPMSADLLRELAHGLDLAGTRFLWAMRKPAGVDADSVLPAGFLGRTGERGLVTTRWAPQVSILAHAAVCAFLTHCGWGSVVEGLQFGHPLIMLPILGDQGPNARILEGRKLGVAVPRNDEDGSFDRGGVAGAVRAVVVEEEGKTFFANARKLQEIVADREREERCIDEFVQHLTSWNELKNNSDGQYP

Columns and labels:
[1] = Sweetness of reb M compared to a 10% sucrose solution
Description: The high purity reb M obtained in this invention, having a molecular weight of 1291.29, a molecular formula of C56H90O33, CAS registry number 1220616-44-3, and the structure presented in FIG. 1, is in the form of a white and odorless powder. The compound is about 200 times sweeter than sugar when compared to a 10% sucrose solution.

[2] = Catalytic test of in-vitro expressed UDP-glucosyltransferases, Rebaudioside A to Rebaudioside D (HPLC); assay type: biochemical; conditions: 0.5 mM Rebaudioside A, 30° C.; for Steviol glycoside conversion in reaction mixture, Reb A (Retention Time ~9.1 min): remaining substrate
Experimental: The prepared expression medium mix was added to the plasmid solution and the solution was allowed to incubate at 30° C. for 3 hours while mixing the mixture every 45 minutes. 5 μL of the mixture was frozen whereas the remainder was used for the catalytic test for the conversion of Rebaudioside A to Rebaudioside D.
(§1) 430 μL of a reaction mixture containing 0.5 mM Rebaudioside A, 3 mM MgCl2, 50 mM phosphate buffer (pH7.2) and 2.5 mM UDP-glucose was added to a 1.5 mL sterile microtube. 52 μL of the enzyme expression medium was added and the resulting mixture was allowed to react at 30° C. for 24 hours. 125 μL samples were taken after 2 hours, 16 hours and 24 hours and added to a 115 μL of 60% methanol and 10 μL of 2 N H2SO4. The quenched sample was centrifuged at 18,000 g for 2 minutes at RT. 200 μL was transferred to an HPLC vial and analyzed.
The HPLC assay was performed as follows:
as §1, with “to” for “to an”
The HPLC assay was performed as described in EXAMPLE 20.

[3] = Rubusoside conversion products with UGTSL, UGTSL2 and UGTLB by LC-MS; assay type: biochemical; conditions: reaction time UGTSL2 2 hrs, UGTLB 5 hrs, UGTSL 45 hrs
Experimental: (§2) Conversion of stevioside with UGTSL and UGTSL2 was conducted in similar manner to Example 28, and the conversion of rubusoside with UGTSL and UGTSL2 was conducted similarly to Example 29. Conversions of rubusoside and stevioside with UGTLB was conducted similarly to Example 32.
(§3) The reaction mixtures were analyzed by LCMS to determine all reaction products.

[4] = Stevioside conversion products with UGTSL, UGTSL2 and UGTLB by LC-MS; assay type: biochemical; conditions: reaction time UGTSL2 2 hrs, UGTLB 2 hrs, UGTSL 22 hrs
Experimental: as §2, §3

Molecule	times sweeter than sugar [1]	Steviol glycoside conversion in reaction mixture, Reb D (Retention Time ~5.8 min) [2]	Steviol glycoside conversion in reaction mixture, Reb A (Retention Time ~9.1 min) [2]	Rubusoside conversion products, LC-MS peak area ratio: Reb D [3]	Rubusoside conversion products, LC-MS peak area ratio: Reb E [3]	Rubusoside conversion products, LC-MS peak area ratio: Rub [3]	Rubusoside conversion products, LC-MS peak area ratio: Stev [3]	Stevioside conversion products, LC-MS peak area ratio: Reb D [4]	Stevioside conversion products, LC-MS peak area ratio: Reb E [4]	Stevioside conversion products, LC-MS peak area ratio: Stev [4]	Steviol glycoside conversion in reaction mixture, Reb UNK (Retention Time ~6.7 min) [2]
C=C1C[C@@]23CC[C@H]4[C@@](C)(CCC[C@@]4(C)C(=O)O[C@@H]4O[C@H](CO)[C@@H](O)[C@H](O[C@@H]5O[C@H](CO)[C@@H](O)[C@H](O)[C@H]5O)[C@H]4O[C@@H]4O[C@H](CO)[C@@H](O)[C@H](O)[C@H]4O)[C@@H]2CC[C@]1(O[C@@H]1O[C@H](CO)[C@@H](O)[C@H](O[C@@H]2O[C@H](CO)[C@@H](O)[C@H](O)[C@H]2O)[C@H]1O[C@@H]1O[C@H](CO)[C@@H](O)[C@H](O)[C@H]1O)C3 [reb M, rebaudioside M]	about 200 times										
B1		0.6 % area	99.4 % area								
B2				6.73%	52.88%	3.54%	2.12%	1.70%	42.56%	20.01%	
B3		0.14 % area	92.8 % area								7.0 % area
B4			46.7 % area	3.45%	35.88%	7.82%	2.37%	0.54%	49.68%	25.24%	23.3 % area
B5		0.28 % area	95.8 % area								3.9 % area
B6		2.1 % area	96.7 % area								

Source: US11312984B2, “High-purity steviol glycosides” (PURECIRCLE SDN BHD, priority 2013, dated 2022)
